Experiment [1] concerns the target lit-stabilized OptoMB variant (group of the BLI measurements in the light). Put plainly: BLI.
Experiment [2] deals with OptoMB_(C450V), light-insensitive, His-tagged, purified (Avena sativa) (UniProt O49003). Description: BLI. In general terms: BLI is a label-free optical method that tracks binding on a fibre tip over time.

Chain of YFP-SH2, purified (fusion of yellow fluorescent protein and SH2) (P00519 121-232): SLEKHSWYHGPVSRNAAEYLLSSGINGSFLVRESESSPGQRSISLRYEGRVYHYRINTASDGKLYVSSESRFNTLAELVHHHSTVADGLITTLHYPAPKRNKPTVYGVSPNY

Usually Kd stands for the equilibrium constant for the complex coming apart. In experiment [1], “YFP-SH2, purified (fusion of yellow fluorescent protein and SH2) (from UniProt P00519 121-232) (domain or fragment)” had a Kd of 11.2 µM; a fold change of kon, dark against light below 46 fold; a fold increase of koff, light against dark below 10 fold. In experiment [2], this substance yielded a dissociation constant (Kd) of 0.07 µM.

These data come from publication doi:10.1101/2020.03.08.831909.
